In paper PMC3791465:

Molecular target: 6 × His-tagged recombinant PHB2, Q99623
Test: SPR

Chain of 6 × His-tagged recombinant PHB2, Q99623 (Q99623 whole entry): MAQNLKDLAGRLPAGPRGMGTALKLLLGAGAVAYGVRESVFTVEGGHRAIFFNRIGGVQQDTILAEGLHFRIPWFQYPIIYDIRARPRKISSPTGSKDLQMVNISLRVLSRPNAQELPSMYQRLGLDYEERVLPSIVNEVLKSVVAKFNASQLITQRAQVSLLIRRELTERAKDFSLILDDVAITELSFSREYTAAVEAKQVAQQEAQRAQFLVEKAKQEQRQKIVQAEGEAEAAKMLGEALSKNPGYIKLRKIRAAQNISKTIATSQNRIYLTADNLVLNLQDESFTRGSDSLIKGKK

Kd: 18.9 µM
Binder: QMLSDLTLQLRQR (modifications not checked) [ERα activity-regulator synthetic peptide (ERAP)]
